Biological target: YadA (Yersinia adhesin A) displayed on E. coli BL21 DE3 cells (Yersinia enterocolitica) (UniProt P0C2W0)
Experiment: fluorescence cell-binding assay (eluted FAM-aptamer)
Conditions: 1.4 mM Mg2+; whole cells; authors say true Kd for pure YadA is probably higher; Kd: PBS 1x pH 7.4 (137 mM NaCl, 2.7 mM KCl, 8 mM Na2HPO4, 2 mM KH2PO4) + 1.4 mM MgCl2, 37 C, 75 min, 0-100 nM aptamer; sensor: inactivated cells in PBS 1x pH 7.

Chain of UniProt P0C2W0 (P0C2W0 whole entry): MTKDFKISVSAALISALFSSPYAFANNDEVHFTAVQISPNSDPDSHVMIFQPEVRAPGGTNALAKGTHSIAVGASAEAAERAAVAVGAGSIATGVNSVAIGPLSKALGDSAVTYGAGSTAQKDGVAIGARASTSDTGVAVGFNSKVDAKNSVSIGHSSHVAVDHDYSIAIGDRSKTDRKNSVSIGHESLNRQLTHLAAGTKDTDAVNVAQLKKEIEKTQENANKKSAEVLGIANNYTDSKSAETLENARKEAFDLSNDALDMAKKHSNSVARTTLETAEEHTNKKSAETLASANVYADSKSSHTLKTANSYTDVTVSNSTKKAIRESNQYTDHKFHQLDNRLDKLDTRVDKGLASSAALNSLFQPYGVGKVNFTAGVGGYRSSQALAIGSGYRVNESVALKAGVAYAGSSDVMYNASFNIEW

Sequence: ATCCAGAGTGACGCAGCATGACAGACGGGAGAGACACGACGGGGGCGGGGAGTGAGAAGCGCGCGCTGAATGTCGTTGGTGGCCC [Apt1 (FAM)]
- Kd: 0.011 µM
